Here are results for one protein from US20050176101.

In data set [1] the target is T1, His-tagged human Abl kinase domain G227-V515 coexpressed with PTP1b phosphatase domain (pET-SPEC BI-PTP Abl G227-V515-X), unphosphorylated.
T1 chain: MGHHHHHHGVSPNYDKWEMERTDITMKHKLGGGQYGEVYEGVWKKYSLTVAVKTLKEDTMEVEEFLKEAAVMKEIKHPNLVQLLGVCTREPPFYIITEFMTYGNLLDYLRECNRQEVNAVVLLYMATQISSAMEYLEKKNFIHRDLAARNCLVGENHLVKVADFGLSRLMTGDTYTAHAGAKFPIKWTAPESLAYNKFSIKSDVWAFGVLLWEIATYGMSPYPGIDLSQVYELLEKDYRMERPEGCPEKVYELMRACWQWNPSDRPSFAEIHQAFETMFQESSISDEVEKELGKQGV

The target in data set [2] is His-tagged human c-MET kinase domain constructs (various lengths) coexpressed with PTP1B from pET-N6 BI-PTP, unphosphorylated.

B1: human PTP1b phosphatase domain, residues Met 1 to Gly 283 (protein)
chain: MEMEKEFEQIDKSGSWAAIYQDIRHEASDFPCRVAKLPKNKNRNRYRDVSPFDHSRIKLHQEDNDYINASLIKMEEAQRSYILTQGPLPNTCGHFWEMVWEQKSRGVVMLNRVMEKGSLKCAQYWPQKEEKEMIFEDTNLKLTLISEDIKSYYTVRQLELENLTTQETREILHFHYTTWPDFGVPESPASFLNFLFKVRESGSLSPEHGPVVVHCSAGIGRSGTFCLADTCLLLMDKRKDPSSVDIKKVLLEMRKFRMGLIQTADQLRFSYLAVIEGAKFIMG
On to B1, for which the “state of phosphorylation detectable with PY20 anti-phospho-Tyr antibody (Western blot)” value in data set [1] is recorded as “the Abl coexpressed with PTP1B has little or no phosphorylation above background, whereas Abl coexpressed alone is highly phosphorylated”. In addition, in data set [2], the “state of phosphorylation (methods as described for the Abl kinase domain)” value is “When expressed alone the MET was phosphorylated and when coexpressed with PTP1B the MET was unphosphorylated”.
